Reference: US7160677, “Transcription factor DP-1” (Topotarget UK Limited)

Legend:
[1] = target: Gal4 activation domain-E2F-1 hybrid protein (pGAD.E2F-1) (yeast) (UniProt P04386); test: cell-based or functional assay
GST-E2F-1(89-437) = GST-E2F-1(89-437) (UniProt Q01094 Q01094:89-437); test: EMSA; settings: tags: GST
[2] = target: DP-1(84-249)/E2F-1(89-437) heteromer (Mus musculus / Homo sapiens?, UniProt Q08639;Q01094 Q08639:84-249,Q01094:89-437); test: EMSA; greater than E2F-1 alone; settings: tags: DP-1 thrombin-released or GST; E2F-1 GST
DP-1(84-249)/E2F-1(89-437) heteromer, sequence (Q01094 89-437, one chain of several): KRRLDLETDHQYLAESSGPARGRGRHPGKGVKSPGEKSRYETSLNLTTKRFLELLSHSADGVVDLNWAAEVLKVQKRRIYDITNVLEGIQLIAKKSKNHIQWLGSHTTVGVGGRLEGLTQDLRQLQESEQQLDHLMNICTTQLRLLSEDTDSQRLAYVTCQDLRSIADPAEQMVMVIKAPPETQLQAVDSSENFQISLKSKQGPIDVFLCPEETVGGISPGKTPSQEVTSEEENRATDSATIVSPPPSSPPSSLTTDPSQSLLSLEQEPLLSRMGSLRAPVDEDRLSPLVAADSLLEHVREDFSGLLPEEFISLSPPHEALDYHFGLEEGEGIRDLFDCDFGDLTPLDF
Method: Cell extracts were prepared as previously described (La Thangue et al., 1990). Gel retardation in F9 EC and HeLa cell extracts (about 6.0 µg) in the presence of anti-DP-1 was performed as previously described (Girling et al., 1993), and immunoprecipitation with anti-DP-1 from HeLa cell extracts was performed by standard procedures. The immunoprecipitates were treated with 1% DOC and 1.5% NP40 and the detergent released material assayed for DRTF1/E2F by gel retardation and the presence of E2F-1 by immunoblotting with the anti-E2F-1 monoclonal antibody SQ41 (Kaelin et al., 1992). The anti-DP-1 antibodies, anti-peptide A and anti-peptide 18, have been previously described (Girling et al., 1993). Rabbit anti-E2F-1 antiserum (antiserum 134) was raised against a peptide which represents E2F-1 amino acid sequence 315 to 323. The sequences of the binding sites used to assess DNA binding specificity were derived from the adenovirus E2A promoter (−71 to −50) and were as follows: WT; […] (SEQ ID NO: 7); 62/60, […]; (SEQ ID NO: 8); 63, […] (SEQ ID NO: 9); 64, […] (SEQ ID NO: 10). In FIG. 2a (tracks 1 to 4), the adenovirus E2A promoter (−96 to +68) was used; in all other cases, the distal E2F site in the E2A promoter (sequences −71 to −50) was used. About 100-fold excess of competing binding sites were used in the gel retardation assays. […]

[3] = target: DP-1(84-204)/E2F-1(89-437) heteromer (Mus musculus / Homo sapiens?, UniProt Q08639;Q01094 Q08639:84-204,Q01094:89-437); test: EMSA; less than with DP-1 84-249; settings: tags: DP-1 thrombin-released or GST; E2F-1 GST
DP-1(84-204)/E2F-1(89-437) heteromer, sequence (Q01094 89-437, one chain of several): as above
Method: Cell extracts were prepared as previously described (La Thangue et al., 1990). Gel retardation in F9 EC and HeLa cell extracts (about 6.0 µg) in the presence of anti-DP-1 was performed as previously described (Girling et al., 1993), and immunoprecipitation with anti-DP-1 from HeLa cell extracts was performed by standard procedures. The immunoprecipitates were treated with 1% DOC and 1.5% NP40 and the detergent released material assayed for DRTF1/E2F by gel retardation and the presence of E2F-1 by immunoblotting with the anti-E2F-1 monoclonal antibody SQ41 (Kaelin et al., 1992). The anti-DP-1 antibodies, anti-peptide A and anti-peptide 18, have been previously described (Girling et al., 1993). Rabbit anti-E2F-1 antiserum (antiserum 134) was raised against a peptide which represents E2F-1 amino acid sequence 315 to 323. The sequences of the binding sites used to assess DNA binding specificity were derived from the adenovirus E2A promoter (−71 to −50) and were as follows: WT; […] (SEQ ID NO: 7); 62/60, […]; (SEQ ID NO: 8); 63, […] (SEQ ID NO: 9); 64, […] (SEQ ID NO: 10). In FIG. 2a (tracks 1 to 4), the adenovirus E2A promoter (−96 to +68) was used; in all other cases, the distal E2F site in the E2A promoter (sequences −71 to −50) was used. About 100-fold excess of competing binding sites were used in the gel retardation assays.

[4] = target: DP-1(59-410)/E2F-1(89-437) heteromer (Mus musculus / Homo sapiens?, UniProt Q08639;Q01094 Q08639:59-410,Q01094:89-437); test: EMSA; synergistic; anti-E2F-1 supershift, anti-DP-1 inhibits; settings: tags: GST on both
DP-1(59-410)/E2F-1(89-437) heteromer, sequence (Q08639 59-410, chain 1 of 2): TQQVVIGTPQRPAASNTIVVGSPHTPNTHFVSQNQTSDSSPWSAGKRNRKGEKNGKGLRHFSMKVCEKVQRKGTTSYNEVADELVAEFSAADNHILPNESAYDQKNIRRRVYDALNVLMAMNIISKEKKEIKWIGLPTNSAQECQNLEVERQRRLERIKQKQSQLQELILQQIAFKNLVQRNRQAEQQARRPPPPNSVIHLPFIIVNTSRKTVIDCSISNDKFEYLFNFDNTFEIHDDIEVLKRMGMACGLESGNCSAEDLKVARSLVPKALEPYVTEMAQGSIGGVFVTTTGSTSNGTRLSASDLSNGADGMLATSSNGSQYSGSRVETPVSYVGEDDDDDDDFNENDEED
DP-1(59-410)/E2F-1(89-437) heteromer, sequence (Q01094 89-437, chain 2 of 2): as the sequence (Q01094 89-437, one chain of several) above

wild-type E2F-1^1-437 = target: T1, wild-type E2F-1^1-437 (Homo sapiens (Human), UniProt Q01094 1-437, radiolabelled with 35S methionine (in vitro translated form) ; chain 1: radiolabelled with 35S methionine (in vitro translated form); letters unchanged); test: GST pull-down (glutathione-agarose) of in vitro translated 35S-labelled E2F-1
T1 construct: Translated in reticulocyte lysate for the pull-down; The same full-length protein was expressed from pE2F-1/pCMV E2F-1 in the transfection assays; also called in vitro transcribed and translated E2F-1 polypeptide; pE2F-1
T1 sequence (Q01094 whole entry): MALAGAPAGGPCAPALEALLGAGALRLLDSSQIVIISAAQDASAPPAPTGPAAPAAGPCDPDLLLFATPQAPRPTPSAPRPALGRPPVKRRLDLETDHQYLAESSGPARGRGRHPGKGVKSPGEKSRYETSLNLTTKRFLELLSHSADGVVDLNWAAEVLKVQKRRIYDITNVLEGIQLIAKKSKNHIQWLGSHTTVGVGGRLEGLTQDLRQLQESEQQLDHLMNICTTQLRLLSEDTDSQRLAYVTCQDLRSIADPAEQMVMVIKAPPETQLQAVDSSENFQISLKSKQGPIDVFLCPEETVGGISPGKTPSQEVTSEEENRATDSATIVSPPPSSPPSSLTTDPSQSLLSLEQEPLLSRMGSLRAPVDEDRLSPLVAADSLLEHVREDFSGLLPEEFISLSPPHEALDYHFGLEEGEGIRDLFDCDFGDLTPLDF
Source text: DP-1 and E2F-1 were expressed as, and released from, GST fusion proteins as previously described (Girling et al., 1993). About 100-fold excess of the competing binding sites were used in gel retardation assays, with the binding site taken from the adenovirus E2A promoter (−71 to −50). The wild-type E2F-1 coding sequence was transcribed and further translated using reticulocyte lysate (Promega) and radiolabelled with ^35S methionine. In the dimerization assay (FIG. 2d), GST-DP-1 fusion protein was incubated with E2F-1 polypeptide for 30 min at 30° C., collected with glutathione-agarose (Sigma), and washed repeatedly with 0.1% NF40-in PBSA. Bound E2F-1 polypeptide was released by denaturation in SDS sample buffer and resolved in a 10% polyacrylamide gel.
GST fusion proteins, or GST protein along (track 2), were collected with glutathione-agarose beads and bound E2F-1 polypeptide released.

GST-E2F-1(89-437), sequence (Q01094 89-437, one chain of several): as the sequence (Q01094 89-437, one chain of several) above

LexA-DP-1 hybrid protein (pLEX.DP-1) (from UniProt P0A7C2 1-202)
activity of p4xWT CYC1 (E2F site-dependent transcription in yeast, β-galactosidase) [1]: 50 fold | transcriptional activity of the LexA reporter construct (yeast two-hybrid, β-galactosidase) [1]: 75 fold

B1: E2A distal E2F site WT (-71 to -50) (dsDNA)
DNA 1: TAGTTTTCGCGCTTAAATTTGA
DNA 2: TCAAATTTAAGCGCGAAAACTA
binding result (GST-E2F-1(89-437)): binds | binding result [2]: binds | binding result [3]: binds | binding result [4]: binds

B2: GST-DP-1^84-166 (other)
chain: PNTHFVSQNQTSDSSPWSAGKRNRKGEKNGKGLRHFSMKVCEKVQRKGTTSYNEVADELVAEFSAADNHILPNESAYDQKNIR
notes: Uncleaved GST fusion; not shown: glutathione-S-transferase (GST)
binding result (wild-type E2F-1^1-437): no binding (tested: about 2 µg GST fusion protein)
